Holding throughout (conditions): both partners purified
One experiment deals with T1, Rb^P L572I (human, UniProt P06400 380-788, L572I).
T1 construct: also called variant 31
T1 sequence (looked up): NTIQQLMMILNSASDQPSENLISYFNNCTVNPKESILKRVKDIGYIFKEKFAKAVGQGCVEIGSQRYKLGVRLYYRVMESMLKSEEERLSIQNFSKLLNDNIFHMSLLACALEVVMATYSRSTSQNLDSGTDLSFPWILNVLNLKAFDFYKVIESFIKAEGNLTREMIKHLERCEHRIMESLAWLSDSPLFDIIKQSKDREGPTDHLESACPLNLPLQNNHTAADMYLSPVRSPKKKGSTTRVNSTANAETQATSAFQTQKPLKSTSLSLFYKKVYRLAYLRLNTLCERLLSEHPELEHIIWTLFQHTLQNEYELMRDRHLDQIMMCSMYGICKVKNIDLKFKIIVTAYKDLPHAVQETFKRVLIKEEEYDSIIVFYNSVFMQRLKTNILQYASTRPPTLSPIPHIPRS
The experiment can be described thus: fluorescence polarisation; 25 °C; unlabeled Rb^P titrated against 1.5 nM TMR-E2F1^TD or 7.5 nM TMR-E7^LxCxE; 25 mM Tris pH 8.0, 200 mM NaCl, 1 mM DTT, 0.1% Tween-20; 2 min incubation; quadratic fit; apparent Kd for the variants, Kd for WT.

Another experiment concerns the target T2, Rb^P E554K (human, UniProt P06400 380-788, E554K).
T2 construct: also called variant 28
T2 sequence (looked up): T1 sequence (looked up) with E175K, I193L
The experiment can be described thus: fluorescence polarisation; 25 °C after warming to 37 °C (7 min ramp, 2 min at 37 °C), 1 min on ice and 3 min at 25 °C; unlabeled Rb^P against 1.5 nM TMR-E2F1^TD or 7.5 nM TMR-E7^LxCxE; 25 mM Tris pH 8.0, 200 mM NaCl, 1 mM DTT, 0.1% Tween-20; apparent Kd. For orientation: Polarisation of emitted light reports the rotation of a fluorescent probe.

Experiment [1] deals with T3, retinoblastoma protein pocket domain (Rb^P), wild type (human, UniProt P06400 380-788).
T3 construct: also called WT Rb^P; WT
T3 sequence (looked up): T1 sequence (looked up) with I193L
Described as above.

A further experiment concerns the target T4, Rb^P S751Y (human, UniProt P06400 380-788, S751Y).
T4 construct: also called variant 72
T4 sequence (looked up): T1 sequence (looked up) with I193L, S372Y
The experiment is described as above.

For the next experiment, the target named is T5, Rb^P M704V (human, UniProt P06400 380-788, M704V).
T5 construct: also called variant 66
T5 sequence (looked up): T1 sequence (looked up) with I193L, M325V
Described as above.

The source of these data is article PMC11931385, “Structural and functional analysis of cancer-associated missense variants in the retinoblastoma protein pocket domain” (The Journal of Biological Chemistry, 2025).

Positions count from the first letter of the chain named. Names and notes keep the numbering of the source. No end group written: not given here. TMR = tetramethyl rhodamine dye

B1: TMR-E2F1^TD, peptide of the E2F1 transactivation domain (peptide)
peptide: {TMR}-GEGIRDLFDCDFGDLTPLD
notes: also called E2F^TD; source: synthetic peptide, bought: GenScript
Consider B1, for which the Kd stood at 37 nM in the experiment with Rb^P L572I; 1740 nM with Rb^P E554K; 17 nM in experiment [1]; 28 nM in the experiment with Rb^P S751Y; 46 nM with Rb^P M704V.

B2: TMR-E7^LxCxE, LxCxE peptide of the E7 oncoprotein from HPV (peptide)
peptide: DLYCYEQLN
modifications: also: TMR label, position not given here
notes: source: synthetic peptide, bought: GenScript
As to B2, the Kd was 4 nM with Rb^P L572I; 24 nM in the experiment with Rb^P E554K; 7 nM in experiment [1]; 119 nM with Rb^P S751Y; 14 nM with Rb^P M704V.
